Patent US20220289816A1, “IMMUNOTHERAPY WITH B*07 RESTRICTED PEPTIDES AND COMBINATION OF PEPTIDES AGAINST CANCERS AND RELATED METHODS” (Immatics Biotechnologies GmbH, priority 2018, published 2022)

Target: HLA-B*07 (Homo sapiens, UniProt P01889)
Assay: MHC binding assay (UV-ligand exchange, ELISA of stabilized MHC complexes)
Details: peptide exchange yield on HLA-B*07, UV-ligand exchange
Outline: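 Peptide–MHC complexes were made by UV-ligand exchange, in which a UV-cleavable peptide is replaced by the test peptide. Exchange yield was measured by ELISA of stabilized complexes on streptavidin-coated plates, using HRP anti-β2m detection (1 h, 37 °C), TMB substrate and absorbance at 450 nm.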

Substance	Peptide exchange
77 (QPRLVPGETL; listed as Homo sapiens) [compound 77]	++++ (>75% = ++++)
29 (APLRVHITSL; listed as Homo sapiens) [compound 29]	++++ (>75% = ++++)
375 (LPRGVLEGL; listed as Homo sapiens) [compound 375]	++++ (>75% = ++++)
496 (MPAVSGPGPLF; listed as Homo sapiens) [compound 496]	+++ (>50 = +++)
151 (QPTWNTQTRL; listed as Homo sapiens) [compound 151]	++++ (>75% = ++++)
221 (LPQRPNARL; listed as Homo sapiens) [compound 221]	+++ (>50 = +++)
204 (FPYSGDKILV; listed as Homo sapiens) [compound 204]	+++ (>50 = +++)
470 (RPNGEVKSEL; listed as Homo sapiens) [compound 470]	++++ (>75% = ++++)
224 (SPIIHSILL; listed as Homo sapiens) [compound 224]	++++ (>75% = ++++)
149 (SPSSVFTSK; listed as Homo sapiens) [compound 149]	+++ (>50 = +++)
194 (HPNKIKASL; listed as Homo sapiens) [compound 194]	+++ (>50 = +++)
283 (RPQPGWRESL; listed as Homo sapiens) [compound 283]	++++ (>75% = ++++)
246 (RPILKEQSSSSF; listed as Homo sapiens) [compound 246]	++++ (>75% = ++++)
119 (KATEYVHSL; listed as Homo sapiens) [compound 119]	+ (>10% = +)
455 (FPVQATIDF; listed as Homo sapiens) [compound 455]	++++ (>75% = ++++)
32 (APMAPGRSPL; listed as Homo sapiens) [compound 32]	++++ (>75% = ++++)
237 (LPRAGGAF; listed as Homo sapiens) [compound 237]	++++ (>75% = ++++)
360 (SPASRSISLL; listed as Homo sapiens) [compound 360]	++++ (>75% = ++++)
188 (HAAASFETL; listed as Homo sapiens) [compound 188]	++ (>20% = ++)
118 (NPERHKPSF; listed as Homo sapiens) [compound 118]	+++ (>50 = +++)
191 (KPKAVKPKAA; listed as Homo sapiens) [compound 191]	++++ (>75% = ++++)
201 (LPIARVLTV; listed as Homo sapiens) [compound 201]	++++ (>75% = ++++)

Further lines, results first:

Peptide exchange	Substance
++++ (>75% = ++++)	187 (APPPPPPPF; listed as Homo sapiens) [compound 187]
+++ (>50 = +++)	331 (SPDSAILKL; listed as Homo sapiens) [compound 331]
+++ (>50 = +++)	13 (LPNTGRIGQL; listed as Homo sapiens) [compound 13]
+++ (>50 = +++)	298 (RVLLRWISL; listed as Homo sapiens) [compound 298]
+++ (>50 = +++)	36 (RPFSREMDL; listed as Homo sapiens) [compound 36]
+++ (>50 = +++)	362 (KPMLPPAAF; listed as Homo sapiens) [compound 362]
++++ (>75% = ++++)	457 (RPPLSQRHTF; listed as Homo sapiens) [compound 457]
+++ (>50 = +++)	78 (HPSQESPTL; listed as Homo sapiens) [compound 78]
++++ (>75% = ++++)	479 (APHAGGALL; listed as Homo sapiens) [compound 479]
++++ (>75% = ++++)	499 (QPVLPSPAC; listed as Homo sapiens) [compound 499]
+++ (>50 = +++)	342 (RPRPPKVL; listed as Homo sapiens) [compound 342]
